The record followed here is US11896644B2, “Inhibition of beta-arrestin oligomerization in tauopathy” (UNIVERSITY OF SOUTH FLORIDA, priority 2020, dated 2024).

Holding throughout (type): cell-based
Series [1] addresses T1, β-arrestin2-flag and β-arrestin2-myc interaction (Rattus norvegicus, UniProt P29067).
T1 construct: expressed in transfected cells; host or cells: Hela V5-tau cells
Briefly: PLA of β-arrestin2-flag and β-arrestin2-myc interaction in presence of mutants. The settings on record: Hela-V5-tau cells. On the procedure:
The assay was performed using commercially available reagents (Duolink, Sigma-Aldrich, St Louis, MO), with transfection of Hela V5-tau cells with WT β-arrestin2-flag and β-arrestin2-myc, without and with the mutant β-arrestin2 ΔIP6C or β-arrestin2 ΔIP6N constructs. Cells were fixed with 4% paraformaldehyde for 15 min at room temperature and washed with 0.2% triton in TBS. After washing, cells were blocked with 0.2% Triton in 3% Normal goat serum for 1 hour at room temperature. After applying primary antibodies overnight at 4° C., cells were washed and incubated with the PLA probes at 37° C. (1 h), washed with buffer A, incubated with ligation solution at 37° C. (30 min), washed with washing buffer A, incubated with amplification solution at 37° C. […]
When DIV 18 tau P301S cortical primary neurons were transduced with either β-arrestin2 ΔIP6C or ΔIP6N lentivirus, an approximately 50% reduction in tau compared to control was evident (FIGS. 4A,4B), which represents a key finding relevant to both mechanism of action and potential therapeutic strategies. […] To determine whether β-arrestin2 oligomerization status alters tau aggregation itself, filter-trap assays were performed from Hela-V5-tau cells transfected with β-arrestin2 variants, in which tau aggregates from detergent-soluble and-insoluble lysates were captured by cellulose acetate membranes and assessed by immunoblotting.

Series [2] relates to tau aggregates. Briefly: Filter-trap assay for tau aggregates from Hela-V5-tau cells. The note with it: vs control vector. The text has this: FIGS. 11A to 11E show β-arrestin2 oligomerization mutants reduce tau aggregates. FIG. 11A contains representative confocal images of total tau in Hela-V5-tau cells transfected with YFP, YFP-β-arrestin2 ΔIP6C, or YFP-β-arrestin2 ΔIP6N (Scale bar=10 μm). FIG. 11B contains representative confocal images of proximity ligation assay (PLA) in Hela-V5-tau cells transfected with β-arrestin2-flag and β-arrestin2-myc with YFP control, YFP-β-arrestin2 ΔIP6C, or YFP-β-arrestin2 ΔIP6N.
When DIV 18 tau P301S cortical primary neurons were transduced with either β-arrestin2 ΔIP6C or ΔIP6N lentivirus, an approximately 50% reduction in tau compared to control was evident (FIGS. 4A,4B), which represents a key finding relevant to both mechanism of action and potential therapeutic strategies. […] Also investigated was whether β-arrestin2 oligomerization is required for slowing tau turnover by disrupting oligomerization using these mutants in several models. […] To determine whether β-arrestin2 oligomerization status alters tau aggregation itself, filter-trap assays were performed from Hela-V5-tau cells transfected with β-arrestin2 variants, in which tau aggregates from detergent-soluble and-insoluble lysates were captured by cellulose acetate membranes and assessed by immunoblotting.

For series [3], the target named is T2, p62 (Homo sapiens, UniProt Q13501).
T2 construct: endogenous in cells; host or cells: Hela-V5-tau cells
Briefly: Interaction of β-arrestin2 variants with p62 (flag/p62 PLA). The settings on record: Hela-V5-tau cells. The text has this: FIGS. 12A to 12E show β-arrestin2 interacts with p62, and β-arrestin2 oligomerization inhibits p62 self-interaction. FIG. 12A contains representative confocal images of mCherry and EGFP in Hela-V5-tau cells transfected with mCherry-GFP-p62 together with control vector, β-arrestin2-flag, or β-arrestin2 ΔIP6N-flag (Scale bar=10 μm). […] The box and whisker plots show all data points, and the box plots show all data points, the median and IQR, and the minimal and maximal values. FIG. 12C contains representative immunoblots of indicated proteins from Hela-V5-tau cells transfected GFP or GFP-β-arrestin2 with/without HA-p62. Note that β-arrestin2 is present in HA immune complexes only in the presence of HA-p62, whereas β-arrestin2 is not detected in control IgG beads. […] Lysates were subjected to IP for HA. […] FIG. 12F show quantification of flag/p62 PLA puncta/cell (N=4 independent experiments, #P<0.0001).
Given the effects on p62 autophagy flux, whether β-arrestin2 physically interacts with p62 was tested. […] Given that β-arrestin2 oligomeric mutants, ΔIP6C and ΔIP6N, reduced tau aggregates by slowing tau turnover, next tested was whether β-arrestin2 ΔIP6C and ΔIP6N mutants affect p62 self-association by a proximity ligation assays (PLA) as well as co-IP. […]

Series [4] concerns the target T3, βarrestin1/βarrestin2 hetero-oligomers (UniProt P29067+P49407).
T3 construct: expressed in transfected cells; host or cells: HeLa-V5-tau cells
Description: PLA for βarrestin1/βarrestin2 hetero-oligomers in HeLa-V5-tau cells. The text has this: FIGS. 24A to 24D show β-arrestin2 oligomerization mutants impair β-arrestin1 homo-oligomers and β-arrestin1/β-arrestin2 hetero-oligomers. HeLa-V5-tau cells were co-transfected with vector control or β-arrestin2 oligomerization mutants (ΔIP6C or ΔIP6N) together with βarrestin1-GFP+βarrestin1-myc or βarrestin2-myc. Cells were then subjected to proximity ligation assay (PLA) using antibodies against GFP and mycto detect βarrestin1 homo-oligomers (FIGS. 24A,24B) and βarrestin1/βarrestin2 hetero-oligomers and DAPI staining (FIGS. 24C,24D) (puncta).

T1 sequence (P29067 whole entry): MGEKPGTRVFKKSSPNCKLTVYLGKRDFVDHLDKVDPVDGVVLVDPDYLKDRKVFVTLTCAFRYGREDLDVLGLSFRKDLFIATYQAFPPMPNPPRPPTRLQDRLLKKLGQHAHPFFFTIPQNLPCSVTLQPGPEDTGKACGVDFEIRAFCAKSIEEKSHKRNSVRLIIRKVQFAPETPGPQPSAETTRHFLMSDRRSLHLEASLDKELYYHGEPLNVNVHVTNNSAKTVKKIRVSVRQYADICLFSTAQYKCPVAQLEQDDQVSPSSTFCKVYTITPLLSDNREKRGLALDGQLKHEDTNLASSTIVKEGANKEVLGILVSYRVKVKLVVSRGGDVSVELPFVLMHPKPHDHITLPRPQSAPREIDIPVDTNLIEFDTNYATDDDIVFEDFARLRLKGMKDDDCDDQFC
T3 sequence (P49407 whole entry): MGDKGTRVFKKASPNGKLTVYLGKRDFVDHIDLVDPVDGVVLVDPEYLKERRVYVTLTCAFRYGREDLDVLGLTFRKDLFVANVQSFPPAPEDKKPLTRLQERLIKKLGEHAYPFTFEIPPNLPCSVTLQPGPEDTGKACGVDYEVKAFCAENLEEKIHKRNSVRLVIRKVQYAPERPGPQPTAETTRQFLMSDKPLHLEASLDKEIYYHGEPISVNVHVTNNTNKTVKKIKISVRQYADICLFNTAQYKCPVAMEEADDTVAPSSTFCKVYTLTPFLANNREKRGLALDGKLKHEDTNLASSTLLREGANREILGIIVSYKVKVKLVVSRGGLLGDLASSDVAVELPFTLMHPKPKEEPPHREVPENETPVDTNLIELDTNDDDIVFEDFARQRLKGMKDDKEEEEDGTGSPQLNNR
T3 sequence (P29067 whole entry): as the sequence (P29067 whole entry) above

B1: β-arrestin2 ΔIP6N: β-arrestin2 N-terminal domain mutant (K158A, K161A, and R162A), incapable of forming oligomers; dominant negative (protein, UniProt P32121 1-409, looked up, variant K158A K161A R162A)
Beta-arrestin-2: MGEKPGTRVFKKSSPNCKLTVYLGKRDFVDHLDKVDPVDGVVLVDPDYLKDRKVFVTLTCAFRYGREDLDVLGLSFRKDLFIATYQAFPPVPNPPRPPTRLQDRLLRKLGQHAHPFFFTIPQNLPCSVTLQPGPEDTGKACGVDFEIRAFCAKSLEEASHAANSVRLVIRKVQFAPEKPGPQPSAETTRHFLMSDRSLHLEASLDKELYYHGEPLNVNVHVTNNSTKTVKKIKVSVRQYADICLFSTAQYKCPVAQLEQDDQVSPSSTFCKVYTITPLLSDNREKRGLALDGKLKHEDTNLASSTIVKEGANKEVLGILVSYRVKVKLVVSRGGDVSVELPFVLMHPKPHDHIPLPRPQSAAPETDVPVDTNLIEFDTNYATDDDIVFEDFARLRLKGMKDDDYDDQLC
modifications: GFP or YFP tag
notes: dominant negative
Regarding B1, the “β-arrestin2-flag and β-arrestin2-myc interaction (PLA)” value in series [1] is listed as “significantly reduced”. Moreover, the “tau aggregates in detergent-insoluble lysates (filter-trap)” value in series [2] is “significantly reduced tau aggregates”. Moreover, in series [3], the “interaction with p62 compared to β-arrestin2” value is given as “much less interaction with p62”. For the same molecule, the “βarrestin1/βarrestin2 hetero-oligomers (PLA puncta)” value in series [4] was “significantly reduce”.
